Results on 1 molecule are retold here after article PMC12582974, “Characterization of WAC interactions with R2TP and TTT chaperone complexes linking glucose and glutamine availability to mTORC1 activity” (FEBS Open Bio, 2025).

For assay [1], the target named is mTOR-mLST8 complex (10xHis-TEV-mTOR with untagged mLST8) (human, UniProt P42345 1-2549; Q9BVC4 1-326). The assay can be described thus: pull-down; WAC-3xFlag from Expi293 lysate purified and held on anti-Flag resin (washes incl. 5 mM ATP/5 mM MgCl2); purified prey added 20 min at 4 °C in 150 mM Tris pH 8, 300 mM KCl, 10% glycerol, 0.5 mM TCEP; elution with 3xFlag peptide; SDS/PAGE and western blot. As to conditions: both partners purified. On the technique in general: Immunoblotting shows a protein as a band on a membrane.

The target of the next assay is T1, RUVBL1-RUVBL2 complex (human, UniProt Q9Y265 1-456; Q9Y230 1-463).
T1 construct: RUVBL1 (RuvB-like 1), human, N-terminal His-tag and TEV site; RUVBL2 (RuvB-like 2), human, untagged; also called RUVBL1‐RUVBL2 module; RUVBL1‐RUVBL2 ATPase module; source: E. coli BL21 (DE3), co-expressed, purified (HisTrap HP; an untagged form by TEV digestion and a second HisTrap step)
T1 sequence (Q9Y265 whole entry, chain 1 of 2): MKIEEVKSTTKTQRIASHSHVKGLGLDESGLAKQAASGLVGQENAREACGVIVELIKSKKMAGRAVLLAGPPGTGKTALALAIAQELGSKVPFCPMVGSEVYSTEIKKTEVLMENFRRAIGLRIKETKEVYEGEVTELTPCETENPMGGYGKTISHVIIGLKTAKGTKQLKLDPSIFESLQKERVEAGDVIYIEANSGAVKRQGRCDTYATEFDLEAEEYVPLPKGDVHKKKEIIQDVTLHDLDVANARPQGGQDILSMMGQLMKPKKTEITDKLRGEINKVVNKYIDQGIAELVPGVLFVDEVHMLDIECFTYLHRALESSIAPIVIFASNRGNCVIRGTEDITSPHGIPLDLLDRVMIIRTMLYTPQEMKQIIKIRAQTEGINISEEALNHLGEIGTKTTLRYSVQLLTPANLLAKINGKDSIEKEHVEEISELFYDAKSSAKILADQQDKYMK
T1 sequence (Q9Y230 whole entry, chain 2 of 2): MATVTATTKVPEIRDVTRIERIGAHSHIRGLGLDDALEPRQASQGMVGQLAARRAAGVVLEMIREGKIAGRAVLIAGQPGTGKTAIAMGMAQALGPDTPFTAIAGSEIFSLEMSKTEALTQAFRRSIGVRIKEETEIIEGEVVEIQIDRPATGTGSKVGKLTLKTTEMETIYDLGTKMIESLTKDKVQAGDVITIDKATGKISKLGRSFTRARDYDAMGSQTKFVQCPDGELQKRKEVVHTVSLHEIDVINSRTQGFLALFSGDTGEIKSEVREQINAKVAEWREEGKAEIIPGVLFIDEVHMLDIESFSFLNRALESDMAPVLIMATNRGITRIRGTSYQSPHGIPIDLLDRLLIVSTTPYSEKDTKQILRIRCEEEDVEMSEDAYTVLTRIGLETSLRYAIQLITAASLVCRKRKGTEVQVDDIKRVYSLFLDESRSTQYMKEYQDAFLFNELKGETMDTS
The description is as above. As to conditions: both partners purified.

B1: WAC-3xFlag (human WAC with C-terminal 3xFlag tag, pACEMam-WAC-3C-3xFlag) (natural protein, UniProt Q9BTA9-1 1-647, looked up)
chain: MVMYARKQQRLSDGCHDRRGDSQPYQALKYSSKSHPSSGDHRHEKMRDAGDPSPPNKMLRRSDSPENKYSDSTGHSKAKNVHTHRVRERDGGTSYSPQENSHNHSALHSSNSHSSNPSNNPSKTSDAPYDSADDWSEHISSSGKKYYYNCRTEVSQWEKPKEWLEREQRQKEANKMAVNSFPKDRDYRREVMQATATSGFASGMEDKHSSDASSLLPQNILSQTSRHNDRDYRLPRAETHSSSTPVQHPIKPVVHPTATPSTVPSSPFTLQSDHQPKKSFDANGASTLSKLPTPTSSVPAQKTERKESTSGDKPVSHSCTTPSTSSASGLNPTSAPPTSASAVPVSPVPQSPIPPLLQDPNLLRQLLPALQATLQLNNSNVDISKINEVLTAAVTQASLQSIIHKFLTAGPSAFNITSLISQAAQLSTQAQPSNQSPMSLTSDASSPRSYVSPRISTPQTNTVPIKPLISTPPVSSQPKVSTPVVKQGPVSQSATQQPVTADKQQGHEPVSPRSLQRSSSQRSPSPGPNHTSNSSNASNATVVPQNSSARSTCSLTPALAAHFSENLIKHVQGWPADHAEKQASRLREEAHNMGTIHMSEICTELKNLRSLVRVCEIQATLREQRILFLRQQIKELEKLKNQNSFMV
notes: WAC (WW domain-containing adaptor with coiled-coil), human, cDNA NM_016628.5 from GenScript (clone OHu28471); An HRV 3C protease site stands between WAC and the 3xFlag tag; also called WW domain-containing adaptor with coiled-coil; WAC lysate; source: Expi293 cells, overexpressed; purified on anti-Flag resin and kept on the beads; not shown: 3xFlag, C-terminal, kept
In the case of B1, the binding result (in assay [1]; with RUVBL1-RUVBL2 complex) was “binds” in each case.
